# Assay results published in article PMC11286772, “Structural basis of antagonist selectivity in endothelin receptors” (Cell Discovery, 2024).
# Biological target: T1, ETA, wild type, as used in the size exclusion chromatography analysis with Fab301 (Homo sapiens, UniProt P25101)
# T1 construct: endothelin receptor type A (ETA), human; Probably one of the insect cell constructs m1 or m3; also called WT; WT ETA
# Assay: SEC; retention time of each ETA ECL2 alanine mutant–Fab301 complex against the WT–Fab301 complex
# T1 sequence (P25101 21-427): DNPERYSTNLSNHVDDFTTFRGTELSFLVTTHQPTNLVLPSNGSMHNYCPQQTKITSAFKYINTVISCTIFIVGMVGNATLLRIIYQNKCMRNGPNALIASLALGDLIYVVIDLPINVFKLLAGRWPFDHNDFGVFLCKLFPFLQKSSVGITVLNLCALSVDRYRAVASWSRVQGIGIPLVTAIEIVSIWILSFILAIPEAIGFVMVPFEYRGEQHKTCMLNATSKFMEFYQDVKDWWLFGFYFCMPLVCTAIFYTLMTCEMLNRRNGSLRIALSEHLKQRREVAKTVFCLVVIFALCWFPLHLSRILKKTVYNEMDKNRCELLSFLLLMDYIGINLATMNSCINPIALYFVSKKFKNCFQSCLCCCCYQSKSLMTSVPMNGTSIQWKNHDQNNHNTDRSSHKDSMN
binder,measurement,value
"Fab301, Fab fragment of the anti-ETA monoclonal antibody Getagozumab (Fab, V domains shown, Purified on Ni-NTA, so one chain probably carries a His tag; In the ambrisentan and zibotentan maps the dynamic regions of Fab301 were masked out; also called ETA-specific antibody; Getagozumab Fab; source: Hi5 insect cells, baculovirus (pFastBac Dual), from the culture supernatant, purified (Ni-NTA, Superdex 200)) VH: QVTLKESGPTLVKPTQTLTLTCTFSGFSLTTSGLGVAWIRQPPGKALEWLAHIWSDGDTRYYPALKNRLTITKDTSKNQVVLTMTNMDPVDTATYYCAHMKDDSLYFDNWGQGTLVTVSS VL: EIVLTQSPDFQSVTPKEKVTITCRASQNIGTSIHWYQQKPDQYPKLLIKYASKSISGVPSRFSGSGSGTDFTLTINSLEAEDAATYYCQHSYSFPWTFGQGTKVEIK",binding result,binds
